These are literature values, as cited in US6468959B1, “Peroral dosage form for peptide containing medicaments, in particular insulin” (ALFATEC-Pharm GmbH, priority 1991, dated 2002).

For the series the following is noted: weakly acid environments of pH 3 to 4 and at pH 7 to 8.

Regarding insulin, the solubility result is “soluble” and the stability entry was “adequately stable”.
